This experiment addresses biotinylated mIL-12 (mIL-12a-AviTag-His6 and untagged mIL-12b) (mouse) (UniProt P43431). Briefly: BLI. On the technique in general: Biolayer interferometry detects binding as a change in optical thickness at a sensor tip.

Sequence of mIL-12Rβ1_(D1-D2) (from mIL-12Rβ1_(D1-D2)-CASP3-AviTag-His6), analyte in BLI (domain or fragment) (Q60837 20-738): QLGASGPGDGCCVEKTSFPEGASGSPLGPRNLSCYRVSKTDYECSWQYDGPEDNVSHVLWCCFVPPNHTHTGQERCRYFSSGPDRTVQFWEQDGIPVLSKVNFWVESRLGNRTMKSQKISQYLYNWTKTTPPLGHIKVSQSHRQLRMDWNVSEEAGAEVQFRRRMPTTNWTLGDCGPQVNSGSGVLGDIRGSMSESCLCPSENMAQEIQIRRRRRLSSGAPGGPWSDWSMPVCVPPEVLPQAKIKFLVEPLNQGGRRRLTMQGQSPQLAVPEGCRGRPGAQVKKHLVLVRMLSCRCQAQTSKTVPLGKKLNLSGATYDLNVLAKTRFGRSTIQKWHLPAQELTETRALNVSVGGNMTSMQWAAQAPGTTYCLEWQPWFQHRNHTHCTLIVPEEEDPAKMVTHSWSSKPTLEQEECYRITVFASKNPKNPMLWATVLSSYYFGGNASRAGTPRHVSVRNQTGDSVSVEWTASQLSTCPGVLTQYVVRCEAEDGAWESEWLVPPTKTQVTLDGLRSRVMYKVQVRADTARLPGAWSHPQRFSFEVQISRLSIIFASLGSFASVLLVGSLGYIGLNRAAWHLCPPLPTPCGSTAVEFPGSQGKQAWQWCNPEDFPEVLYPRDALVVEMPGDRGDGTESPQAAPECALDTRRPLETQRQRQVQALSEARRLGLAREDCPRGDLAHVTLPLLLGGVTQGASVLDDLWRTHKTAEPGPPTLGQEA
Sequence of biotinylated mIL-12 (mIL-12a-AviTag-His6 and untagged mIL-12b) (mouse) (P43431 23-215, chain 1 of 2): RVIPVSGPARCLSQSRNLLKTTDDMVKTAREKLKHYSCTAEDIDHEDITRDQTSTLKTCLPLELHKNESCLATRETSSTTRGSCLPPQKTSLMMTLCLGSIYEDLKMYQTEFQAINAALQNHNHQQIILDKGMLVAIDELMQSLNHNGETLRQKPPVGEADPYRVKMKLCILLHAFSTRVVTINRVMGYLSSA
Sequence of biotinylated mIL-12 (mIL-12a-AviTag-His6 and untagged mIL-12b) (mouse) (P43432 23-335, chain 2 of 2, further chain): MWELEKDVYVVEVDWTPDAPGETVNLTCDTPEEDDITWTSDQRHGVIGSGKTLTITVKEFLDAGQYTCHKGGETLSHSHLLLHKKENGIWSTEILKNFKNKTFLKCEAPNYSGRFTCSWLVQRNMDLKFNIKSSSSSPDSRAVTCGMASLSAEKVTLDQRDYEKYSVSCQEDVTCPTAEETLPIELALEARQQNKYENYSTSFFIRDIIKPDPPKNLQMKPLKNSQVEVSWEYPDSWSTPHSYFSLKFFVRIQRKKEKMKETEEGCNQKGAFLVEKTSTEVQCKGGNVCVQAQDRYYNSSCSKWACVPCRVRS

With “mIL-12Rβ1_(D1-D2) (from mIL-12Rβ1_(D1-D2)-CASP3-AviTag-His6), analyte in BLI (domain or fragment)”, the fold higher affinity than the human counterparts (hIL-12 for hIL-12Rβ1) was determined as 10 fold.

Values taken from article doi:10.1101/2023.03.13.532366.
